Test results: patent publication US20250277006A1

Target: adalimumab
Experiment: SPR; ligand on CM5; max response at 800 nM, rounded to 50 Ru

Q: With “ZGE0214 (domain E with A/R/I at positions 33/40/51) (designed binder)” as the substance, how does the max response (Ru) read?
A: 4100 Ru

Q: “ZGE0234 (domain E with A/G/R at positions 33/40/51) (designed binder)” was tested. Which max response (Ru) did it give?
A: 2950 Ru
